In the supplement of paper PMC6755084 one finds fraction ligated data, which are given here for 97 sequences.

This data set concerns F1*sub RNA substrate (template-directed ligation). Briefly: fraction ligated after 30 min (ligated reads / total reads); higher = more ligase activity; sequences stand for … in GAGACCGCAACTGAAAAGTTGT…AGTTCTGCACGTAGAAGCAAAAGGC
The following applies: 42 °C. In short, it runs like this:
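Templates from an oligo pool were PCR-amplified, transcribed with T7 and gel-purified to give the ribozyme variants. Ligated and unligated products were separated on gel, reverse transcribed using barcoded primers, and read on a MiSeq. A quality filter of ≥20 was applied to core bases. Fraction ligated was taken as ligated reads as a share of all reads per variant.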
In turn, “TATCACTTGTGTAACACTTTGGATGGGTTGA [3d1732]” gave a fraction ligated of 0.841.

The sequence “TATCACTTGTGTAAGAACTTGGATGGGTTGA [3d1765]” showed a fraction ligated of 0.84.

As for “TATCACTTGTGTAAGAACTTTGATGGGTTGA [3d1766]”, the fraction ligated worked out at 0.834.

“TATCACTTGTGTAAGAACTTTGGAGGGTTGA [3d1768]” had a fraction ligated of 0.0385.

Take “TATCACTTGTGTAAGAACTTTGGATGGGTTA [3d1770]”: the fraction ligated turned out to be 0.771.

For the sequence “TATCACTTGTGTAAGAACTTTGGATGGGTTG [3d1771]”, the fraction ligated was 0.85.

The sequence “TATCACTTGTGTAAGAACTTTGGATGGTTGA [3d1769]” had a fraction ligated of 0.0688.

In turn, “TATCACTTGTGTAAGAACTTTGGTGGGTTGA [3d1767]” returned a fraction ligated of 0.0854.

With “TATCACTTGTGTAAGAATTTGGATGGGTTGA [3d1764]”, the fraction ligated stood at 0.863.

For the sequence “TATCACTTGTGTAAGACACTGGATGGGTTGA [3d1786]”, the fraction ligated amounted to 0.792.

For the sequence “TATCACTTGTGTAAGACACTTGATGGGTTGA [3d1787]”, the fraction ligated is 0.8.

Consider “TATCACTTGTGTAAGACACTTGGAGGGTTGA [3d1789]”, for which the fraction ligated worked out at 0.011.

The sequence “TATCACTTGTGTAAGACACTTGGATGGGTTA [3d1791]” came in with a fraction ligated of 0.349.

In turn, “TATCACTTGTGTAAGACACTTGGATGGGTTG [3d1792]” showed a fraction ligated of 0.801.

“TATCACTTGTGTAAGACACTTGGATGGTTGA [3d1790]” had a fraction ligated of 0.0286.

The sequence “TATCACTTGTGTAAGACACTTGGTGGGTTGA [3d1788]” yielded a fraction ligated of 0.0212.

Turning to “TATCACTTGTGTAAGACACTTTATGGGTTGA [3d1793]”, the fraction ligated amounted to 0.0875.

In turn, “TATCACTTGTGTAAGACACTTTGAGGGTTGA [3d1795]” yielded a fraction ligated of 0.0251.

Sequence “TATCACTTGTGTAAGACACTTTGATGGGTTA [3d1797]” displayed a fraction ligated of 0.0515.

In turn, “TATCACTTGTGTAAGACACTTTGATGGGTTG [3d1798]” showed a fraction ligated of 0.544.

“TATCACTTGTGTAAGACACTTTGATGGTTGA [3d1796]” registered a fraction ligated of 0.0289.

As to “TATCACTTGTGTAAGACACTTTGGAGGGTTA [3d1804]”, the fraction ligated was 0.0394.

“TATCACTTGTGTAAGACACTTTGGAGGGTTG [3d1805]” displayed a fraction ligated of 0.0238.

Turning to “TATCACTTGTGTAAGACACTTTGGAGGTTGA [3d1803]”, the fraction ligated is 0.0314.

“TATCACTTGTGTAAGACACTTTGGATGGGTT [3d1808]” came in with a fraction ligated of 0.615.

“TATCACTTGTGTAAGACACTTTGGATGGGTTA [2d192]” showed a fraction ligated of 0.823.

“TATCACTTGTGTAAGACACTTTGGATGGGTTG [2d193]”: the fraction ligated worked out at 0.845.

As to “TATCACTTGTGTAAGACACTTTGGATGGGTTGA [1d10]”, the fraction ligated is 0.859.

For the sequence “TATCACTTGTGTAAGACACTTTGGATGGTTA [3d1806]”, the fraction ligated was determined as 0.101.

With “TATCACTTGTGTAAGACACTTTGGATGGTTG [3d1807]”, the fraction ligated was found to be 0.115.

With “TATCACTTGTGTAAGACACTTTGGATGGTTGA [2d191]”, the fraction ligated was found to be 0.198.

“TATCACTTGTGTAAGACACTTTGGGGGTTGA [3d1799]”: the fraction ligated came out at 0.0501.

Sequence “TATCACTTGTGTAAGACACTTTGGTGGGTTA [3d1801]” gave a fraction ligated of 0.0254.

Regarding “TATCACTTGTGTAAGACACTTTGGTGGGTTG [3d1802]”, the fraction ligated came out at 0.0157.

As for “TATCACTTGTGTAAGACACTTTGGTGGTTGA [3d1800]”, the fraction ligated was 0.0267.

The sequence “TATCACTTGTGTAAGACACTTTGTGGGTTGA [3d1794]” returned a fraction ligated of 0.00464.

Consider “TATCACTTGTGTAAGACATTGGATGGGTTGA [3d1779]”, for which the fraction ligated was 0.848.

In the case of “TATCACTTGTGTAAGACATTTGATGGGTTGA [3d1780]”, the fraction ligated was found to be 0.494.

Regarding “TATCACTTGTGTAAGACATTTGGAGGGTTGA [3d1782]”, the fraction ligated turned out to be 0.0398.

Take “TATCACTTGTGTAAGACATTTGGATGGGTTA [3d1784]”: the fraction ligated was 0.822.

Sequence “TATCACTTGTGTAAGACATTTGGATGGGTTG [3d1785]” had a fraction ligated of 0.838.

Sequence “TATCACTTGTGTAAGACATTTGGATGGTTGA [3d1783]” registered a fraction ligated of 0.169.

As for “TATCACTTGTGTAAGACATTTGGTGGGTTGA [3d1781]”, the fraction ligated was 0.0614.

For the sequence “TATCACTTGTGTAAGACCTTGGATGGGTTGA [3d1772]”, the fraction ligated came to 0.856.

Sequence “TATCACTTGTGTAAGACCTTTGATGGGTTGA [3d1773]” yielded a fraction ligated of 0.819.

For “TATCACTTGTGTAAGACCTTTGGAGGGTTGA [3d1775]”, the fraction ligated worked out at 0.137.

“TATCACTTGTGTAAGACCTTTGGATGGGTTA [3d1777]” had a fraction ligated of 0.81.

On to “TATCACTTGTGTAAGACCTTTGGATGGGTTG [3d1778]”, for which the fraction ligated was 0.812.

“TATCACTTGTGTAAGACCTTTGGATGGTTGA [3d1776]”: the fraction ligated is 0.204.

“TATCACTTGTGTAAGACCTTTGGTGGGTTGA [3d1774]”: the fraction ligated was found to be 0.157.

As for “TATCACTTGTGTAAGACTTTGGATGGGTTGA [3d1754]”, the fraction ligated was found to be 0.868.

With “TATCACTTGTGTAAGCACTTGGATGGGTTGA [3d1757]”, the fraction ligated came to 0.805.

On to “TATCACTTGTGTAAGCACTTTGATGGGTTGA [3d1758]”, for which the fraction ligated is 0.811.

“TATCACTTGTGTAAGCACTTTGGAGGGTTGA [3d1760]” had a fraction ligated of 0.121.

“TATCACTTGTGTAAGCACTTTGGATGGGTTA [3d1762]” registered a fraction ligated of 0.831.

Regarding “TATCACTTGTGTAAGCACTTTGGATGGGTTG [3d1763]”, the fraction ligated worked out at 0.851.

“TATCACTTGTGTAAGCACTTTGGATGGTTGA [3d1761]” yielded a fraction ligated of 0.256.

“TATCACTTGTGTAAGCACTTTGGTGGGTTGA [3d1759]”: the fraction ligated stood at 0.117.

“TATCACTTGTGTAAGCATTTGGATGGGTTGA [3d1756]” came in with a fraction ligated of 0.851.

As to “TATCACTTGTGTAAGCCTTTGGATGGGTTGA [3d1755]”, the fraction ligated worked out at 0.76.

For “TATCACTTGTGTAGAACTTTGGATGGGTTGA [3d1734]”, the fraction ligated worked out at 0.822.

The sequence “TATCACTTGTGTAGACACTTGGATGGGTTGA [3d1737]” had a fraction ligated of 0.826.

The sequence “TATCACTTGTGTAGACACTTTGATGGGTTGA [3d1738]” yielded a fraction ligated of 0.824.

Sequence “TATCACTTGTGTAGACACTTTGGAGGGTTGA [3d1740]” yielded a fraction ligated of 0.0783.

Consider “TATCACTTGTGTAGACACTTTGGATGGGTTA [3d1742]”, for which the fraction ligated amounted to 0.828.

The sequence “TATCACTTGTGTAGACACTTTGGATGGGTTG [3d1743]” gave a fraction ligated of 0.863.

As for “TATCACTTGTGTAGACACTTTGGATGGGTTGA [2d181]”, the fraction ligated came out at 0.871.

Take “TATCACTTGTGTAGACACTTTGGATGGTTGA [3d1741]”: the fraction ligated stood at 0.252.

In the case of “TATCACTTGTGTAGACACTTTGGTGGGTTGA [3d1739]”, the fraction ligated came out at 0.105.

Consider “TATCACTTGTGTAGACATTTGGATGGGTTGA [3d1736]”, for which the fraction ligated came to 0.883.

In turn, “TATCACTTGTGTAGACCTTTGGATGGGTTGA [3d1735]” had a fraction ligated of 0.845.

As to “TATCACTTGTGTAGCACTTTGGATGGGTTGA [3d1733]”, the fraction ligated was 0.841.

In the case of “TATCACTTGTGTGACACTTTGGATGGGTTGA [3d1731]”, the fraction ligated was determined as 0.826.

Sequence “TATCACTTGTTAAACACTTTGGATGGGTTGA [3d1706]” returned a fraction ligated of 0.842.

Turning to “TATCACTTGTTAAGAACTTTGGATGGGTTGA [3d1708]”, the fraction ligated is 0.874.

For “TATCACTTGTTAAGACACTTGGATGGGTTGA [3d1711]”, the fraction ligated was 0.784.

Turning to “TATCACTTGTTAAGACACTTTGATGGGTTGA [3d1712]”, the fraction ligated came to 0.786.

Regarding “TATCACTTGTTAAGACACTTTGGAGGGTTGA [3d1714]”, the fraction ligated stood at 0.111.

Regarding “TATCACTTGTTAAGACACTTTGGATGGGTTA [3d1716]”, the fraction ligated is 0.778.

In turn, “TATCACTTGTTAAGACACTTTGGATGGGTTG [3d1717]” came in with a fraction ligated of 0.83.

Sequence “TATCACTTGTTAAGACACTTTGGATGGGTTGA [2d179]” showed a fraction ligated of 0.859.

For the sequence “TATCACTTGTTAAGACACTTTGGATGGTTGA [3d1715]”, the fraction ligated came to 0.348.

Regarding “TATCACTTGTTAAGACACTTTGGTGGGTTGA [3d1713]”, the fraction ligated was 0.111.

Regarding “TATCACTTGTTAAGACATTTGGATGGGTTGA [3d1710]”, the fraction ligated came out at 0.835.

Sequence “TATCACTTGTTAAGACCTTTGGATGGGTTGA [3d1709]” displayed a fraction ligated of 0.785.

With “TATCACTTGTTAAGCACTTTGGATGGGTTGA [3d1707]”, the fraction ligated is 0.797.

“TATCACTTGTTAGACACTTTGGATGGGTTGA [3d1705]” showed a fraction ligated of 0.842.

In the case of “TATCACTTTCAAGACACTTTGGATGGGTTGA [3d1479]”, the fraction ligated was 0.772.

“TATCACTTTCGAAACACTTTGGATGGGTTGA [3d1494]” registered a fraction ligated of 0.795.

“TATCACTTTCGAAGAACTTTGGATGGGTTGA [3d1496]” came in with a fraction ligated of 0.843.

“TATCACTTTCGAAGACACTTGGATGGGTTGA [3d1499]”: the fraction ligated is 0.779.

Take “TATCACTTTCGAAGACACTTTGATGGGTTGA [3d1500]”: the fraction ligated was 0.767.

The sequence “TATCACTTTCGAAGACACTTTGGAGGGTTGA [3d1502]” registered a fraction ligated of 0.0243.

For the sequence “TATCACTTTCGAAGACACTTTGGATGGGTTA [3d1504]”, the fraction ligated is 0.382.

For the sequence “TATCACTTTCGAAGACACTTTGGATGGGTTG [3d1505]”, the fraction ligated was found to be 0.792.

As to “TATCACTTTCGAAGACACTTTGGATGGGTTGA [2d149]”, the fraction ligated was determined as 0.797.

As for “TATCACTTTCGAAGACACTTTGGATGGTTGA [3d1503]”, the fraction ligated was 0.0707.
